Source: patent US12398178 (dated 2025)
Values belong to the binder of their own block, whether it stands above or below them.

Assays:
[1] = molecular target: i,i+4 binder Linker 2; assay: fluorescence polarization; xStAx41 derivative
[2] = molecular target: i,i+7 binder Linker 1; assay: fluorescence polarization; xStAx41 derivative
[3] = molecular target: i,i+7 binder Linker 2; assay: fluorescence polarization; xStAx41 derivative
[4] = molecular target: i,i+4 binder Linker 1; assay: fluorescence polarization; xStAx41 derivative
[5] = molecular target: i,i+4 binder Linker 8; assay: fluorescence polarization; xStAx41 derivative
[6] = molecular target: i,i+4 non-binder Linker 2; assay: fluorescence polarization; xStAx41 derivative
[7] = molecular target: i,i+4 binder Linker 9; assay: fluorescence polarization; xStAx41 derivative
[8] = molecular target: i,i+7 non-binder Linker 9; assay: fluorescence polarization; xStAx41 derivative
[9] = molecular target: i,i+7 non-binder Linker 4; assay: fluorescence polarization; xStAx41 derivative
[10] = molecular target: i,i+7 non-binder Linker 5; assay: fluorescence polarization; xStAx41 derivative
[11] = molecular target: i,i+7 binder Linker 3; assay: fluorescence polarization; xStAx41 derivative
[12] = molecular target: i,i+7 binder Linker 6; assay: fluorescence polarization; xStAx41 derivative
[13] = molecular target: i,i+7 non-binder Linker 6; assay: fluorescence polarization; xStAx41 derivative
[14] = molecular target: i,i+4 non-binder Linker 7; assay: fluorescence polarization; xStAx41 derivative
[15] = molecular target: i,i+4 binder Linker 4; assay: fluorescence polarization; xStAx41 derivative
[16] = molecular target: i,i+7 non-binder Linker 7; assay: fluorescence polarization; xStAx41 derivative
[17] = molecular target: i,i+4 non-binder Linker 1; assay: fluorescence polarization; xStAx41 derivative
[18] = molecular target: i,i+4 non-binder Linker 5; assay: fluorescence polarization; xStAx41 derivative
[19] = molecular target: i,i+4 binder Linker 5; assay: fluorescence polarization; xStAx41 derivative
[20] = molecular target: i,i+7 binder Linker 4; assay: fluorescence polarization; xStAx41 derivative
[21] = molecular target: i,i+4 non-binder Linker 4; assay: fluorescence polarization; xStAx41 derivative
[22] = molecular target: i,i+4 binder Linker 6; assay: fluorescence polarization; xStAx41 derivative
[23] = molecular target: i,i+7 non-binder Linker 2; assay: fluorescence polarization; xStAx41 derivative
[24] = molecular target: i,i+4 binder Linker 3; assay: fluorescence polarization; xStAx41 derivative
[25] = molecular target: i,i+4 non-binder Linker 9; assay: fluorescence polarization; xStAx41 derivative
[26] = molecular target: i,i+7 binder Linker 8; assay: fluorescence polarization; xStAx41 derivative
[27] = molecular target: i,i+7 binder Linker 7; assay: fluorescence polarization; xStAx41 derivative
[28] = molecular target: i,i+4 binder Linker 7; assay: fluorescence polarization; xStAx41 derivative
[29] = molecular target: i,i+7 binder Linker 9; assay: fluorescence polarization; xStAx41 derivative
[30] = molecular target: i,i+4 non-binder Linker 3; assay: fluorescence polarization; xStAx41 derivative
[31] = molecular target: i,i+4 non-binder Linker 6; assay: fluorescence polarization; xStAx41 derivative
[32] = molecular target: i,i+7 non-binder Linker 3; assay: fluorescence polarization; xStAx41 derivative
[33] = molecular target: i,i+7 non-binder Linker 1; assay: fluorescence polarization; xStAx41 derivative
[34] = molecular target: i,i+4 non-binder Linker 8; assay: fluorescence polarization; xStAx41 derivative
[35] = molecular target: i,i+7 binder Linker 5; assay: fluorescence polarization; xStAx41 derivative
[36] = molecular target: i,i+7 non-binder Linker 8; assay: fluorescence polarization; xStAx41 derivative
[37] = molecular target: Compound 2; assay: SPR (Biacore)

- Kd [1]: 3.1 µM
- Kd [2]: 2.9 µM
- Kd [3]: > 50 µM
- Kd [4]: > 50 µM
- Kd [5]: 28.7 µM
- Kd [6]: > 50 µM
- Kd [7]: 2.4 µM
- Kd [8]: > 50 µM
- Kd [9]: > 50 µM
- Kd [10]: > 50 µM
- Kd [11]: 25.4 µM
- Kd [12]: 5.3 µM
- Kd [13]: > 50 µM
- Kd [14]: > 50 µM
- Kd [15]: 10.1 µM
- Kd [16]: > 50 µM
- Kd [17]: > 50 µM
- Kd [18]: > 50 µM
- Kd [19]: 8.6 µM
- Kd [20]: 8.7 µM
- Kd [21]: > 50 µM
- Kd [22]: 5.6 µM
- Kd [23]: > 50 µM
- Kd [24]: 7.1 µM
- Kd [25]: > 50 µM
- Kd [26]: 16.3 µM
- Kd [27]: 0.6 µM
- Kd [28]: 7.8 µM
- Kd [29]: 10.5 µM
- Kd [30]: > 50 µM
- Kd [31]: > 50 µM
- Kd [32]: > 50 µM
- Kd [33]: > 50 µM
- Kd [34]: > 50 µM
- Kd [35]: 14.6 µM
- Kd [36]: > 50 µM
B1: beta-catenin (other)
chain: ATQADLMELDMAMEPDRKAAVSHWQQQSYLDSGIHSGATTTAPSLSGKGNPEEEDVDTSQVLYEWEQGFSQSFTQEQVADIDGQYAMTRAQRVRAAMFPETLDEGMQIPSTQFDAAHPTNVQRLAEPSQMLKHAVVNLINYQDDAELATRAIPELTKLLNDEDQVVVNKAAVMVHQLSKKEASRHAIMRSPQMVSAIVRTMQNTNDVETARCTAGTLHNLSHHREGLLAIFKSGGIPALVKMLGSPVDSVLFYAITTLHNLLLHQEGAKMAVRLAGGLQKMVALLNKTNVKFLAITTDCLQILAYGNQESKLIILASGGPQALVNIMRTYTYEKLLWTTSRVLKVLSVCSSNKPAIVEAGGMQALGLHLTDPSQRLVQNCLWTLRNLSDAATKQEGMEGLLGTLVQLLGSDDINVVTCAAGILSNLTCNNYKNKMMVCQVGGIEALVRTVLRAGDREDITEPAICALRHLTSRHQEAEMAQNAVRLHYGLPVVVKLLHPPSHWPLIKATVGLIRNLALCPANHAPLREQGAIPRLVQLLVRAHQDTQRRTSMGGTQQQFVEGVRMEEIVEGCTGALHILARDVHNRIVIRGLNTIPLFVQLLYSPIENIQRVAAGVLCELAQDKEAAEAIEAEGATAPLTELLHSRNEGVATYAAAVLFRMSEDKPQDYKKRLSVELTSSLFRTEPMAWNETADLGLDIGAQGEPLGYRQDDPSYRSFHSGGYGQDALGMDPMMEHEMGGHHPGADYPVDGLPDLGHAQDLMDGLPPGDSNQLAWFDTDL

- Kd [37]: 0.45 µM
B2: beta-Catenin (other)
chain: HAVVNLINYQDDAELATRAIPELTKLLNDEDQVVVNKAAVMVHQLSKKEASRHAIMRSPQMVSAIVRTMQNTNDVETARCTAGTLHNLSHHREGLLAIFKSGGIPALVKMLGSPVDSVLFYAITTLHNLLLHQEGAKMAVRLAGGLQKMVALLNKTNVKFLAITTDCLQILAYGNQESKLIILASGGPQALVNIMRTYTYEKLLWTTSRVLKVLSVCSSNKPAIVEAGGMQALGLHLTDPSQRLVQNCLWTLRNLSDAATKQEGMEGLLGTLVQLLGSDDINVVTCAAGILSNLTCNNYKNKMMVCQVGGIEALVRTVLRAGDREDITEPAICALRHLTSRHQEAEMAQNAVRLHYGLPVVVKLLHPPSHWPLIKATVGLIRNLALCPANHAPLREQGAIPRLVQLLVRAHQDTQRRTSMGGTQQQFVEGVRMEEIVEGCTGALHILARDVHNRIVIRGLNTIPLFVQLLYSPIENIQRVAAGVLCELAQDKEAAEAIEAEGATAPLTELLHSRNEGVATYAAAVLFRMSED
